Here are results for 30 sequences from the nanobody polyreactivity screen of Harvey et al. (2022).

This series is described as follows: yeast display, Sf9 membrane polyspecificity reagent, FACS + sequencing; frameworks hold sequencing errors. The procedure, abridged: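 Synthetic nanobody libraries on Saccharomyces cerevisiae BJ5465 were galactose-induced for 36–48 hours, stained 1 hour at 4 °C with 10% biotinylated, detergent-solubilized Sf9 membrane reagent and enriched on streptavidin microbeads. FACS then separated cells into low and high (top ~1%) gates by anti-HA (expression) and streptavidin (reagent binding) fluorescence. Genes were colony-PCR amplified, MiSeq 2 × 250 sequenced and CDR-length filtered. A clone's polyreactivity label is that of its gate of origin.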
As for “QVQLVESGGGLVQAGGSLRLICAASGRTFTHNAMGWSRQAPGKERELVAGITSGCSTNYADSVKGRFTISRDNAKNTVYLQMNSLKPEDTAVYYCNKVFFWSRYKGYYYWGQGTQVTVSS”, the “polyreactivity (PSR sort gate)” value is on record as “high polyreactivity”. For “QVQLVESGGGLVQAGGSLRLSCAASGRIFDCYAMGWDRQAPGKERELVAAIRASGGRTYYADSVKGRFTISRDNAKNTVYLQMNSLKPEDTAVYYCAADSVKYGGDYGGQGTQVTVSS”, the “polyreactivity (PSR sort gate)” value is listed as “high polyreactivity”.

Regarding “QVQLVESGGGLVQAGGSLRLSCAASGLIFYKYAMGWYRQAPGKERELVAAITSGGSTNYADSVKGRFTISRDNAKNTVYLQMNSLKPEDTAVYYCNADYNLYLVVRWWYPPVDYWGQGTQVTVSS”, the “polyreactivity (PSR sort gate)” value is “low polyreactivity”. Regarding “QVQLVESGGGLVQAGGSLRLSCAASGRIIRDNAMGWYRQAPGKERELVAAISRRGGSTYYADSVKGRFTISRDNAKNTVYLQMNSRKPEDTAVYYCNKTTHSRTFRYDYWGQGTQVTVSS”, the “polyreactivity (PSR sort gate)” value was “low polyreactivity”. For the sequence “QVQLVESGGGLVQAGGSLRLSCAASGFIFVDNAMGWYRQAPGKERELVAAITYRGGSTYYADSVKGRFTISRDNAKNTVYLQMNSLKPEVTAVYYCNADYGDTFEYDYWGQGTQVTVSS”, the “polyreactivity (PSR sort gate)” value is listed as “low polyreactivity”. In the case of “QVLLVESGGGLVQAGGSLRLSCAASGFIFFKYAMGWYRQAPGKEREFVAAISKSGTSTYYADSVKGRFTISRDNAKNTVYLQLNILKPEDTAVYDCAARYGRGSAYPEYDYWGQGTQVTVSS”, the “polyreactivity (PSR sort gate)” value is reported as “high polyreactivity”. The value for “QVQLVESGGGLVQAGGSLRLSCSASGIIFIYYGMGWYRKAPGTERELVAAISRSGGRTYYADSVKGRFTISRDNANNIVYLQMNSLKPEDTAVYYCATTYTPTGFDYWGQGTQVTVSS” was “high polyreactivity”. For “QVQLVESGGGLVQAGGSLRLSCAASGSIFGYYVMGWYRQAPGKERELVAAISRSGGSTYYADSVKGRFTISRDHAKNTVYLQMNSLKPEDTAVYYCAARGTAERDYWGQGTQVTVSS”, the “polyreactivity (PSR sort gate)” value is on record as “high polyreactivity”. As for “QVQLVESGGGLVQAGGSLRLSCAASGITFSYNAMGWYRQAPGKERELVAAISDIGGSTYYADSVKGRFTISRDNAKITVYLQMNSLKPEDTAVYYCAADEYYQDEYDYWGQGTQVTVSS”, the “polyreactivity (PSR sort gate)” value is “low polyreactivity”.

With “QVQLVESVGGLVKAGGSLRLSCAASGSTFRYYSMGWYRPAPGKERELVAGITTGGGRTYYADSVKGRFTISRDNAMNTVYLQMNSLKPEDTAVYSCAADRYSHYWYRNSYDYWGQGTQVTVSS”, the “polyreactivity (PSR sort gate)” value is given as “high polyreactivity”. For the sequence “QVQLVESGGGLVQAGGSLRLSCAASGRTFGWYTMGRYRQAPGKEREMVAGISSSGGSTYYADSVKGRFTISRDNAKNTVYLQMNSMKPEDTAVYYFARETYPHGLYYRPYDYWGQGTQVTVSS”, the “polyreactivity (PSR sort gate)” value is reported as “low polyreactivity”. As to “QVQLVESGGGLVQAGGSLRLSCAASGRIFVHNAMGWYRQAPGKERELVAAISQNGGRTYYADSVKGRFTISRDNAKNTVYLQMNSLIPEDTAVYYCAAGQARAGLIGGYWGQGTQVTVSS”, the “polyreactivity (PSR sort gate)” value was “high polyreactivity”.

“QVQLVESAGGLVQAGVSLRISCAASGSTIRHYAMGWYRQAPRKERELVAAISSGARTYYADSEKGRFTISRDNAKNTVYLQMNSLKPEDTAVYYRAARYNGYANPYYYWGQGTQVTVSS”: the “polyreactivity (PSR sort gate)” value is “high polyreactivity”. As for “QVQLVDSGGGLVQAGGSLRLTCAASGSTYYRNAMGWYRQAPGKETEFVAAISFRGGGTYADSVKGRFTISRDNAKNTVYLQMNSLKPDDTAVYYCDSDHLSYRRRYEYWGQGTKVTVSS”, the “polyreactivity (PSR sort gate)” value is “low polyreactivity”. Take “QVQLQESGGGLVQACGSLRLSCAASGYIFSHQYMGWYRQAPGKERELVASISPGATTNYADSVKGRFTISRDNAKNTVYLQMNSLKPEDTAVYYYAVYQILDRRLSYWGQGTQVTVSC”: the “polyreactivity (PSR sort gate)” value is reported as “high polyreactivity”. For “QVQLVESCGGIVQAGGSLRLRCAASGFIFEYYAMVWYRQAPGKERELVAAINWGGGRTRYADSVKGRFTISPYNAKNTVYLQMNSLKPEDTAVYYCAARYGYRYDSWGQGTQVTVSS”, the “polyreactivity (PSR sort gate)” value is “high polyreactivity”.

As to “QVQLVESRGGLVQAGGSLLLSCAASGIIFRYYTMGWYRQAPGKERELVAAIERSGGNTYYADSVKGRFTISRDNAKNTVYLQMNSLKPEDTAVYYCAARYATWYFRRGRKTSDYDYWGQGTQVTVSS”, the “polyreactivity (PSR sort gate)” value is listed as “high polyreactivity”. The value for “QVQLVESGGGLVQAGGSLRLSCAASGNIYSWYAMGWYRQAPGKERELVAVISRSGGSTYYADSVKGRFTISRDNAKNTVYLQMNSLKPEDTAVYYCAARAYRTPYSIQFDYWGQGTQVTVSS” was “high polyreactivity”; that for “QVQLVESGGGLVQAGGSLRLSCAASGYIIGRYVMGWYRQAPGKERELVAAITASGGSTYYADSVKGRFTISRDNAKNTVYLQMNSLKPEDTAVYYCAAPTYGRFLRNDYWGQGTQVTVSS” was “high polyreactivity”. As for “QVQLVESGGGLVQAGGSLRLSCAASRPIFYANAKGGYRQAPGKEREFVATIRRGTSTNYADSVKGRFTISRDNAKNTVYLQMNSLKPEDTAVYYCAVVSNGRRERYYYWGQGTQVTVSS”, the “polyreactivity (PSR sort gate)” value is “low polyreactivity”.

As for “QVQLQESGGGLVQACGSQRLSCAASGSISEGQDKGWYRRAPGKEREFVAGIAPGATTYYADSEKGRFTISRDNAKNTVYLQMNSLKPEDTAVYFCAARSVTETDHDYWGQGTQVTVSS”, the “polyreactivity (PSR sort gate)” value is “low polyreactivity”. For “QVQLVESVGGLVQAGGSLRLSCAASGFIFYYNTMGWYRQAPGKERELVAAISSGGRTYYADSVKGRFTISRDNAKNTVYLQMNSLKPEYTAVYYCNVVTYVKYGYWGQGTQVTVSS”, the “polyreactivity (PSR sort gate)” value is on record as “high polyreactivity”. Turning to “QVQLVESGGGLVQAGGSLRLSCAASGRTFISYAMGWYRQAPGKERELVAGISRGGSTYYADSVKGRFTISRDNAMNTVYLQMNRLKPEDTAVYYCAARRWISSHSYKYGYWGQGTQVTVSS”, the “polyreactivity (PSR sort gate)” value is recorded as “high polyreactivity”. With “QVQLVESGGGLVQAGGSLRLSCAASGSTFWPYAMGWFRQAPGTERELVAAITWSGGRTYYADSVKGRFTLSRDNAKNTVYLQMNSLKPEDTAVYYCAAYYRQGIAPNGFDYWGQGTQVTVSS”, the “polyreactivity (PSR sort gate)” value is listed as “high polyreactivity”. With “QVQLVESWGGLVQAGGSLRLSCAASGLIFKVYAMGWYRQAPGKERELVAAITYSGGSTDYADSVKGRFTISRDNAKNTVYLQMNSLKPEDTAVYYCNVEKVGHVNSYGYDYWGQGTQVTVSS”, the “polyreactivity (PSR sort gate)” value is “low polyreactivity”. As to “QVQLVESGGVLVQAGGSLRLSCAATGRIKDNVMGWYRQAPGKERELVAAITRSARRTYYADSVTGRFTISRDNAKNTVYLQMNSLKPEDTAVYYCAAQAERYGFEYWGQGTQVTVSS”, the “polyreactivity (PSR sort gate)” value is listed as “low polyreactivity”. On to “QVQLVESGGGLVQAGGSLRLSCAASGRIFATNAMGWYRQAPGKEMELVATITRSAGRTYYADSVKGRFTISRDNAKNTVYLQMNSLKPEDTAVYYCAASYWDTEPGYREYDYWGQGTQVTVSS”, for which the “polyreactivity (PSR sort gate)” value is reported as “low polyreactivity”.

As to “QVQLVESGGGLVQAGGSLRLSCAASGSIFWRYAMGWYRQAPGKERELVAVISRSGGRTYYADSVKGRFTISRDNAKNTVYLQMNSLKPEDTAVNYCAADYYGVYSKRYGFDYWGQGTQVTVSS”, the “polyreactivity (PSR sort gate)” value is recorded as “high polyreactivity”. For “QVQLVESGGGLVQAGGSLRISCAASGFTFPLYAMGWYRQAPGKERELVAAINYRGSSTYYADSVKGRFTISRDNAKNTVYLHMNSLKPEYTAVYYCNAADPVWNQVYWGSNEYDYWGQGTQVTVSS”, the “polyreactivity (PSR sort gate)” value is recorded as “high polyreactivity”. With “QVQLVESGGGLVQAGGSLRLSCAASGIIFESYAMGCYRQAPGKERELVAAISSRGGSTYYADSVKGRFTISRDNSKNTVYLQMNSLKPEDTAVYYCAADVAAGVSSYPTKYSYDYWGQGTQVTVSS” the entry was “low polyreactivity”.
